Measurements: the supplement of paper PMC9170038

System: MS2 coat protein
Test: apparent KD of MS2 coat protein; designed switch direction (-1 OFF switch, 1 ON switch): -1; higher = weaker reporter binding
Method in brief: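 Each step of the titration lasted 0.8–1.5 h at the lowest concentration and 10–20 min at the highest. The protein, SNAP-549-labelled MS2 coat protein, went from 0.7 or 1.5 nM doubling to 3 µM over RNA switches transcribed on Illumina chips by stalled E. coli RNA polymerase. Normalised cluster fluorescence was curve-fitted, and the per-design median over clusters is given as apparent KD.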

[1] = Eterna round: R95, input ligand: FMN 200 uM
[2] = Eterna round: R95, input ligand: microRNA oligo, concentration not stated
[3] = Eterna round: R95, input ligand: none
[4] = input ligand: microRNA oligo, concentration not stated

| Sequence | apparent KD of MS2 coat protein (input ligand: FMN 200 uM) [nM] | apparent KD of MS2 coat protein (input ligand: none) [nM] | apparent KD of MS2 coat protein [1] [nM] | apparent KD of MS2 coat protein [2] [nM] | apparent KD of MS2 coat protein [3] [nM] | apparent KD of MS2 coat protein [4] [nM] |
| --- | --- | --- | --- | --- | --- | --- |
| AAUUUGCAAGCGAGAUCCCACAUGAGGAUCACCCAUGUGCUCGUCUUAUAAGGUACUGUGACAAAAGUCACGGUACC [Mat - Sensor, turn-off var - Eli Mod - D95] (Eterna round: R97, puzzle: Sensor, turn-off variant 1) | 16.6 | 16.8 | – | – | – | – |
| GUGUGCAGAGGAUAUACAUAGUAAAAUAAAAUAUAAUAGGGACAUGAGGAUCACCCAUGUAGAAGGCUGAGUGU [Excluse me!! 23 - Jieux - Exclusion 2] (puzzle: Exclusion 2) | – | – | 51.2 | 41.7 | 46.1 | – |
| AUGCGACAUGAGGAUCACCCAUGUGAGGAUAUUCGAAUGCACAAUUCGGUGUGAUAGAGGAGAAGGCGCAGGUA [EX1 #19] (Eterna round: R97, puzzle: Exclusion 1) | 154 | 243 | – | – | – | – |
| GGUAGAGUGGUAGGAUAUCCGGCUGUUUCAGUCGGAGAAGGACCACAGUCACUGGGUCCAAAUAUGGGUGACCAUGUAUCUACC [pwkr exNG1 F6.6] (Eterna round: R96, puzzle: Exclusion NG 1) | 984 | 371 | – | – | – | 337 |
| AAGUACCGUCACGAAAGUGAUGGUACAACAAGCAUGUAAACAUGAGGAUCACCCAUGUCCUCAUAUGCUCGUCUUAU [Sensor 3 - 63] (puzzle: Sensor v3, turn-off variant 2) | – | – | 480 | 32.5 | 533 | – |
| AGAUGGCGAGGAUAUACAUGAGGAUCACCCAUGUGAGAGAAGAAAGUGAGGAAGAAAAGUAGAAGGCGCUGUCA [Mat - Exclusion 3 - Mod of Salish D11] (puzzle: Exclusion 3) | – | – | 184 | 54.4 | 60 | – |
| CAGUACUGAGGAUAUACAUGAGGAUCACCCAUGUGUUCCAGCUAGGAGACUAGCAAGUGUAGAAGGCAGUACUG [jl-ex3-4.01 salish99 mod] (Eterna round: R97, puzzle: Exclusion 3) | 293 | 434 | – | – | – | – |
| GCAGCAUAUGUAGGAUAUCUGCACGUUUAGUGCAGAGAAGGACAUGAGGAUCACCCAUGUAAUUAAGAUCAAUUAUUAAGCUGC [ENG1/4-A2] (Eterna round: R96, puzzle: Exclusion NG 1) | 42.5 | 26.2 | – | – | – | 17.2 |
| GACUAGUGAGGAUAUAUUUGCAGUGUACCUCGGGUGAUCGCACUUGAGGAUCACCCAAGUAGAAGGCGCGAGGG [EX2 #25] (Eterna round: R97, puzzle: Exclusion 2) | 47.7 | 355 | – | – | – | – |
| CCCAGUUAUUGAGGAUAUCCUACAUGAGGAUCACCCAUGUAAUAAAUGAGGAUUUCGGGUGUCUAGGAGAAGGCAAGGAUAGGC [Ostracism 22 - Jieux - Exclusion NG 2] (Eterna round: R96, puzzle: Exclusion NG 2) | 63.7 | 50.5 | – | – | – | 39.8 |
| CCGGAAAGGAAGGAUAUGCUAGACGAAAGUCUAGCAGAAGGUCCUACAUGAGGAUCACCCAUGUGGCCUCCCGG [Eli x6 4.09] (Eterna round: R97, puzzle: Exclusion 6) | 267 | 137 | – | – | – | – |
| CUGAUGUGAGGAUAUGUGAUCUGCCUUCUAUGUAGAUGAUCACAGAAGGCACAUGAGGAUCACCCAUGUAGAUC [Ex4 - 3 - 26] (Eterna round: R96, puzzle: Exclusion 4) | 129 | 99.4 | – | – | – | 57.3 |
| AGUUGGCGAGGAUAUACAUGAGGAUCACCCAUGUGAGAGAUACUAGUGAGGUCGAUUAGUAGAAGGCGCUGACA [Mat - Exclusion 3 - Mod of JL D77] (puzzle: Exclusion 3) | – | – | – | 31.6 | – | – |
| CUUUAGCUAGGAUAUACAUGAGGAUCACCCAUGUUAGCGGUCAAUUGGGCCGCGGGUUGUAGAAGGAGCAUUAA [Aniscerile] (puzzle: Exclusion 3) | – | – | – | 28.6 | – | – |
| AAUAACAAGUUGAUCCUUCACAUGAGGAUCACCCAUGUGCUCGUCUUGUAAAGUACUAUCACGAAAGUGAUAGUACA (Eterna round: R97, puzzle: Sensor, turn-off variant 1) | 256 | 249 | – | – | – | – |
| GGAUCACAUGUGAGGAUAUGCUGGUCCUUGGAUCAGCAGAAGGCACAUGAGGAUCACCCAUGUGAUCAAGAUCC [Eli bmx4 4.78] (Eterna round: R97, puzzle: Brourd's mod of Exclusion 4) | 22.2 | 37.1 | – | – | – | – |
| AACAAACAUGAGGAUCACCCAUGUCAGGAUAUGGCGGCUAGUGUGCCACCGUACACUACCAGAAGGGACUGGGU [Diedtiis] (puzzle: Exclusion 1) | – | – | – | 111 | – | – |
| CGUGGUAGGCAGGAUAUUUUAGACAAUUACUUGAAAGAAGGGCCUACAUGAGGAUCACCCAUGUGCUCUUCUUG [EX6 B.3] (Eterna round: R97, puzzle: Exclusion 6) | 16.9 | 16.8 | – | – | – | – |
| UAUAUAUAGUAAGGAUAUGUAUUAAUUUAAUAAACAGAAGGUACUGACAUGAGGAUCACCCAUGUUUUAGUGUGGGCAUGUAGA [JMF's solution 83] (Eterna round: R96, puzzle: Exclusion NG 1) | – | – | – | – | – | 64.3 |
| UGUUGUCGCGCAGGAUAUGAGGAUCACCCAUAUAAGGAUAUCGAAAGAGAAGGUCUGAGGAUUACCCAGAAGGGCGGGACAACU [pwkr exNG2 2xF5 2xFMN.30] (Eterna round: R96, puzzle: Exclusion NG 2) | 309 | 70.1 | – | – | – | 43.8 |
| GCUCGCUGAGGAUAUACUAAAACACGCUCUGGGAGGUCUUGACUUGAGGAUCACCCAAGUAGAAGGCAGUUAAA [Zaesleeran] (Eterna round: R97, puzzle: Exclusion 2) | 437 | 450 | – | – | – | – |
| GCCGGGCGUGUAGGAUAUGGCCGGCGGUGCCGGCCAGAAGGACAUGAGGAUCACCCAUGUGCCGGCCUUGGGCCGGCGCCCGGC [-51, -48 kcal and 14% A] (Eterna round: R96, puzzle: Exclusion NG 1) | 14.9 | 13.3 | – | – | – | 8.09 |
| AUGUGGGUACGAAGGUGUAGAUUGAGCGUACGUUCUGGAACAUGAGGAUCACCCAUGUCGCUUUUUGCUCGUCUUAU [JR_SV3TOV2_Sub035] (puzzle: Sensor v3, turn-off variant 2) | – | – | 25.1 | 47.8 | 24.1 | – |
| CUUAGCCUAAAAUCACGCAAGCUUUUUGCUUGUCUUAAGACAUGAGGAUCACCCAUGUCCGGGCUGAACUUAUGGAA [Zarebe] (puzzle: Sensor v3, turn-off variant 2) | – | – | 17.5 | 20.4 | 17.1 | – |
| UAAGAUUACCGAGGAUAUGGUAGUUUCUAUUAACCAGAAGGCGGACUCAACAUGAGGAUCACCCAUGUAUAAAGGGUAUUAGAU [JR_ExcNG1_Sub041] (Eterna round: R96, puzzle: Exclusion NG 1) | 91.7 | 116 | – | – | – | 56.4 |
